The results in this text go back to the supplement of paper PMC9170038.

The test system of this data set is MS2 coat protein. Kind of data set: apparent KD of MS2 coat protein; designed switch direction (-1 OFF switch, 1 ON switch): -1; higher = weaker reporter binding. The procedure, abridged:
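On Illumina chips, designed RNA switches with common flanks were made by stalled E. coli RNA polymerase. Titrations with SNAP-549-labelled MS2 coat protein, doubling from 0.7 or 1.5 nM to 3 µM, were done with no input, with 200 uM small-molecule ligand, or with an oligonucleotide input. Apparent KD is the median per design over clusters, from curve fits of normalised cluster fluorescence.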

Where [1] appears, read: Eterna round: R95, input ligand: FMN 200 uM.
[2] abbreviates: Eterna round: R95, input ligand: microRNA oligo, concentration not stated.
The mark [3] stands for this setting: Eterna round: R95, input ligand: none.
[4] abbreviates: input ligand: microRNA oligo, concentration not stated.

On to “UAUUAGCAAGCAAGAUCCCACAUGAGGAUCACCCAUGUGCUCGUCUUAAUUCCAGAAUUACUGGGCUCUCGUCUUAU [JR_STOV1_Sub090] (Eterna round: R97, puzzle: Sensor, turn-off variant 1)”, for which the “apparent KD of MS2 coat protein” value (input ligand: FMN 200 uM) worked out at 0.041 µM and the “apparent KD of MS2 coat protein” value (input ligand: none) came to 0.0406 µM.
Regarding “CUUUUGUGAGGAUAUCAGUAGUAAAAAAAUAAAAUUACUACUGAGAAGGCACAUGAGGAUCACCCAUGUUCCUU [salish99_ex4_r3_010] (puzzle: Exclusion 4)”, the “apparent KD of MS2 coat protein” value is, setting by setting: under setting [1], 0.0284 µM; under setting [2], 0.0152 µM; under setting [3], 0.014 µM.
For “AUGAGGUUAGGAUAUACAUGAGGAUCACCCAUGUUGAAAGGUUAGAUAGGCGAAGCUGGUAGAAGGAACGGAGC [JR_Exclu3_Sub055] (puzzle: Exclusion 3)”, in that order: 0.0279 µM, 0.0298 µM and 0.0328 µM.
Take “AUAGGCUGUUUUGUUCGUCACAUGAGGAUCACCCAUGUCUCGAGACUGUGCUUACGUUGCGUGUAUAGUCCGGGUAU [Eternabot (L1) Solution 5] (Eterna round: R97, puzzle: Sensor, turn-off variant 1)”: the “apparent KD of MS2 coat protein” value amounted to 0.0341 µM (input ligand: FMN 200 uM) and 0.0363 µM (input ligand: none).
Regarding “AUAAAUCAUGUAGGAUAUGCGUGGCGAAGCUAUGCAGAAGGACAUGAGGAUCACCCAUGUGCUUGCGUCCGCGUACGGAUGCAA [Mat - Exclusion NG 1 - Mod of JL - D69] (Eterna round: R96, puzzle: Exclusion NG 1)”, the “apparent KD of MS2 coat protein” value by setting is: (input ligand: FMN 200 uM) 0.0652 µM; under setting [4], 0.155 µM; (input ligand: none) 0.231 µM.
For the sequence “GAGUGACAUGAGGAUCACCCAUGUGAGGAUAUCGGACGGACCAAAUUAACAACCGCCGCGAGAAGGCACAUCGG [Exclusion 1 V21] (puzzle: Exclusion 1)”, the “apparent KD of MS2 coat protein” value under setting [1] was 0.13 µM, the “apparent KD of MS2 coat protein” value under setting [2] is 0.144 µM and the “apparent KD of MS2 coat protein” value under setting [3] stood at 0.129 µM.
For the sequence “UAUUAUCAAGCUUGAUCCCACAUGAGGAUCACCCAUGUGCUCGUCUUAUUUCUGUCCUUAUUGUUCUCUCGUCUAAU [JR_STOV1_v2_Sub097] (Eterna round: R97, puzzle: Sensor, turn-off variant 1)”, the “apparent KD of MS2 coat protein” value is, setting by setting: (input ligand: FMN 200 uM) 0.0802 µM; (input ligand: none) 0.0941 µM.
Consider “GCAUUGAGUGUGAGGAUAUGCUGGUCCUUGGAUCAGCAGAAGGCACAUGAGGAUCACCCAUGUGAAUACAAUGC [JL bmx4 3.13] (puzzle: Brourd's mod of Exclusion 4)”, for which the “apparent KD of MS2 coat protein” value under setting [2] turned out to be 0.0189 µM.
On to “CCUCUACAUGAGGAUCACCCAUGUGAGGAUAUCUCGGAGCAGCCUAUUAAGGCGCUCCAGAGAAGGCACGUGUA [Dizasoorce] (puzzle: Exclusion 1)”, for which the “apparent KD of MS2 coat protein” value under setting [2] was found to be 0.0179 µM.
On to “CUAUUACGAGGAUAUGAUUUAAAUAACAUGAGGAUCACCCAUGUUUUUACGUUAUUUUGUUUAGAAGGCGUAUUGU [JR_E5_Sub027] (puzzle: Exclusion 5)”, for which the “apparent KD of MS2 coat protein” value under setting [2] is 0.0555 µM.
With “AACUCUGAGAAGGAUAUUCAAUGGGAAACGAUAGAAGAAGGUUUCACAUGAGGAUCACCCAUGUCAAAUAGUGA [EX6 #72] (Eterna round: R97, puzzle: Exclusion 6)”, the “apparent KD of MS2 coat protein” value by setting is: (input ligand: FMN 200 uM) 0.178 µM; (input ligand: none) 0.173 µM.
For the sequence “CCGACAUGAGGAUAUCCAUCUGGAUCAGACUAGAUCCUGAUGGAGAAGGUACAUGAGGAUCACCCAUGUUACGG [Eli 4x 4.46] (Eterna round: R97, puzzle: Exclusion 4)”, the “apparent KD of MS2 coat protein” value reads like this: (input ligand: FMN 200 uM) 0.372 µM; (input ligand: none) 0.33 µM.
Taken in the same sequence, the figures for “UGGUCACAUGAGGAUCACCCAUGUCAGGAUAUCGUCACUGGAGCUGCGGCUCCAGUGACGAGAAGGGACAUAAU [E1/6-A3] (Eterna round: R97, puzzle: Exclusion 1)” were 0.162 µM and 0.253 µM.
Taken in the same sequence, the figures for “ACUUACUGAGGAUAUACUUAGAUUUACAUGAGGAUCACCCAUGUUCCUCUAUGUAUAUAUGUAGAAGGCAGAAGUA [Mat - Exclusion 5 - JL Mod - D50] (Eterna round: R97, puzzle: Exclusion 5)” were 0.252 µM and 0.038 µM.
On to “CAGUACUGAGGAUAUACAUGAGGAUCACCCAUGUGUUCCAGCUAGGAAACUAGCACUUGUAGAAGGCAGUACUG [Ex3: 830] (Eterna round: R96, puzzle: Exclusion 3)”, for which the “apparent KD of MS2 coat protein” value runs as follows: (input ligand: FMN 200 uM) 0.458 µM; under setting [4], 0.0216 µM; (input ligand: none) 0.0267 µM.
With “UGUCUACAUGAGGAUCACCCAUGUCAGGAUAUGCUCGAUAUAUGGAAACAUAUAUCGAGCAGAAGGGACUAGCG [Jieuxxlusion 5 - Jieux - Exclusion 1] (Eterna round: R97, puzzle: Exclusion 1)”, the “apparent KD of MS2 coat protein” value (input ligand: FMN 200 uM) was 0.0535 µM and the “apparent KD of MS2 coat protein” value (input ligand: none) stood at 0.0284 µM.
Take “CUGUGAUGAGGAUAUACAUGAGGAUCACCCAUGUGUCCUCUGAUGGGUAGGGACCCUGGUAGAAGGCAUUGAGA [Eternabot (L1) Solution 52] (Eterna round: R97, puzzle: Exclusion 3)”: the “apparent KD of MS2 coat protein” value (input ligand: FMN 200 uM) stood at 0.0192 µM and the “apparent KD of MS2 coat protein” value (input ligand: none) turned out to be 0.0155 µM.
Turning to “GCCGGAUUUGUGAGGAUAUACCUAUGGAUACAUAGGUAGAAGGCACAUGAGGAUCACCCAUGUACCUCUCCGGC [JL-BMX4-4.19 Eli mod] (Eterna round: R97, puzzle: Brourd's mod of Exclusion 4)”, the “apparent KD of MS2 coat protein” value was found to be 0.0919 µM (input ligand: FMN 200 uM) and 0.0195 µM (input ligand: none).
Consider “CAGUACUGAGGAUAUACAUGAGGAUCACCCAUGUGCUUUAGCUAGGAUACUAGCACCAGUAGAAGGCAGUACUG [Fiskers Ex 3 828 mod 12] (puzzle: Exclusion 3)”, for which the “apparent KD of MS2 coat protein” value under setting [2] is 0.0107 µM.
As to “CCGGCUUAGGAGGAUAUAGGAGUCGAUAGACACCUAGAAGGCCUAACAUGAGGAUCACCCAUGUGACCUACCGG [Mod of Eli 28 - Jieux - Exclusion 6] (Eterna round: R97, puzzle: Exclusion 6)”, the “apparent KD of MS2 coat protein” value reads like this: (input ligand: FMN 200 uM) 0.132 µM; (input ligand: none) 0.0286 µM.
For the sequence “AGCUAGUGCCGAGGAUAUACAUGAGGAUCACCCAUGUAAGCCAGUCGGUUUCUGACUGGCAAUAUGUAGAAGGCGGCGUUGGCA [JL ENG2 1.49] (Eterna round: R96, puzzle: Exclusion NG 2)”, the “apparent KD of MS2 coat protein” value is, setting by setting: (input ligand: FMN 200 uM) 0.0482 µM; under setting [4], 0.0113 µM; (input ligand: none) 0.0166 µM.
With “AAAAUGUGAGGAUAUCACGGAGCUCCGCGUGACGAAGCUCCUGAGAAGGCACAUGAGGAUCACCCAUGUCCUGU [EX4 A.30] (Eterna round: R97, puzzle: Exclusion 4)”, the “apparent KD of MS2 coat protein” value (input ligand: FMN 200 uM) came to 0.296 µM and the “apparent KD of MS2 coat protein” value (input ligand: none) turned out to be 0.0544 µM.
Take “AAUGAUUGACGAGGAUAUUGUGGUGAAACACGACGAGAAGGCGUAUGUCACAUGAGGAUCACCCAUGUGUGCUUUGUGGAUAUA [Ex NG1 #69] (Eterna round: R96, puzzle: Exclusion NG 1)”: the “apparent KD of MS2 coat protein” value (input ligand: FMN 200 uM) was determined as 0.0397 µM, the “apparent KD of MS2 coat protein” value under setting [4] turned out to be 0.0242 µM and the “apparent KD of MS2 coat protein” value (input ligand: none) came to 0.0311 µM.
In the case of “AAUAACAGAGGAUAUACUAUUUUAUGUAUUUAUUAUUUUAAACAUGAGGAUCACCCAUGUAGAAGGCUGAUUGA [JMF 70] (puzzle: Exclusion 2)”, under setting [2], the “apparent KD of MS2 coat protein” value turned out to be 0.0285 µM.
Turning to “AAAAGCAAGUAAAGAUUCUACAUGAGGAUCACCCAUGUGCUCGUCUUAUAAAGUACUAUCACGAAAGUGAUAGUACA [Sensor 3, v1 - 43] (puzzle: Sensor v3, turn-off variant 1)”, the “apparent KD of MS2 coat protein” value reads like this: under setting [1], 0.0194 µM; under setting [2], 0.124 µM; under setting [3], 0.0176 µM.
For “AUGAGGUUAGGAUAUACAUGAGGAUCACCCAUGUUGAAAGGUUAGAUAGGCGAAGAUGGUAGAAGGAACAAAGA [JR_Exclu3_Sub054] (puzzle: Exclusion 3)”, the “apparent KD of MS2 coat protein” value is, setting by setting: under setting [1], 0.0294 µM; under setting [2], 0.0382 µM; under setting [3], 0.0439 µM.
Turning to “AGCACGACUGCAGGAUAUUCCGCAGUUGAUGCGGGAGAAGGGCAGGGCAGCACUUGAGGAUCACCCAAGUGACCGUGUUGCCAA [Mutated MS2 EX1.7] (Eterna round: R96, puzzle: Exclusion NG 1)”, the “apparent KD of MS2 coat protein” value (input ligand: FMN 200 uM) worked out at 0.0358 µM, the “apparent KD of MS2 coat protein” value under setting [4] was found to be 0.0172 µM and the “apparent KD of MS2 coat protein” value (input ligand: none) was found to be 0.0251 µM.
With “AUUGUGUUAGGAUAUAACAACUACUAAUAAAUUAGUAGUUGUUAGAAGGAACAUGAGGAUCACCCAUGUAUGAU [-21.1, -20.3 kcal, A 38%] (Eterna round: R97, puzzle: Exclusion 4)”, the “apparent KD of MS2 coat protein” value worked out at 0.06 µM (input ligand: FMN 200 uM) and 0.0294 µM (input ligand: none).
Consider “UAUGUGUCAGGAUAUCGAUUAGAACAGAAUUUAACAAUAGUCGAGAAGGGACAUGAGGAUCACCCAUGUUCAUC [JR_Ex4_Sub022] (Eterna round: R97, puzzle: Exclusion 4)”, for which the “apparent KD of MS2 coat protein” value is, setting by setting: (input ligand: FMN 200 uM) 0.0264 µM; (input ligand: none) 0.0189 µM.
Take “GGAAAGGUAGGAUAUACGAAAAAAAAGGGUAGAAAAAAAACACAUGAGGAUCACCCAUGUAGAAGGACCAAAAG [salish99_ex2_r3_036] (puzzle: Exclusion 2)”: the “apparent KD of MS2 coat protein” value reads like this: under setting [1], 0.0448 µM; under setting [2], 0.0361 µM; under setting [3], 0.033 µM.
As for “CCUUAGUCAGGAUAUUGAGGUAAAAGAAAAGAAAACGACAGCAAGAAGGGACAUGAGGAUCACCCAUGUAUAAA [Bequxeain] (puzzle: Exclusion 4)”, the “apparent KD of MS2 coat protein” value under setting [1] turned out to be 0.0244 µM, the “apparent KD of MS2 coat protein” value under setting [2] stood at 0.0301 µM and the “apparent KD of MS2 coat protein” value under setting [3] stood at 0.0162 µM.
With “CCGGAAAUAGAGGAUAUCGUAUCGGAUACGAUACGAGAAGGCUGUACAUGAGGAUCACCCAUGUGUCCUACCGG [Fiskers Ex 6 - 58] (puzzle: Exclusion 6)”, the “apparent KD of MS2 coat protein” value under setting [2] turned out to be 0.0113 µM.
